In patent US20210238260:

Key:
[1] = biological target: plasma purified human AT-III (antithrombin III); test: AT-III/UFH inhibition K0.5, ratio to Catalyst Biosciences WT FIXa
[2] = biological target: plasma purified human antithrombin III (AT-III), as complex with unfractionated heparin; test: ratio of K0.5 (lower limit) to Catalyst Biosciences WT FIXa, AT-III/UFH inhibition
[3] = biological target: Factor X (FX), P00742
[4] = biological target: Factor X, P00742
Chain of Factor X, P00742 (P00742 whole entry, looked up): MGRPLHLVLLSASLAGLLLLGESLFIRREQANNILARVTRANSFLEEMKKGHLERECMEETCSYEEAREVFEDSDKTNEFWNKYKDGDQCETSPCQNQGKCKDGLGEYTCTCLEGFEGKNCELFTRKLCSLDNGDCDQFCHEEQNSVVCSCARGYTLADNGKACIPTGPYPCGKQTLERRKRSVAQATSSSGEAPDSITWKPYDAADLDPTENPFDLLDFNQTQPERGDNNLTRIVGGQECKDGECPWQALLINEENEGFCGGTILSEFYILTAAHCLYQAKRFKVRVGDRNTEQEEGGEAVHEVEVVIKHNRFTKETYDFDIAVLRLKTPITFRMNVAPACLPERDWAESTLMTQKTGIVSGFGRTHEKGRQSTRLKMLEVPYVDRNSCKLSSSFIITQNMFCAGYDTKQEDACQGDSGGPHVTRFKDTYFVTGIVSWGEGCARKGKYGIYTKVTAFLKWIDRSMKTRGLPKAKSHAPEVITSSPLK

Chain of Factor X (FX), P00742 (P00742 whole entry, looked up): as above

Protein	K0.5-mut/K0.5-wt [1]	K0.5-mut/K0.5-wt [2]	% of WT kcat/KM [3] [%]	kcat [3] [s⁻¹]	kcat/KM [3] [M⁻¹ s⁻¹]	% of WT kcat/KM [4] [%]	KM [4] [µM]	kcat/KM [4] [M⁻¹ s⁻¹]	KM [3] [µM]	kcat of FX activation by FIXa (Xase complex with FVIIIa, PC/PS vesicles, Ca2+) [3] [s⁻¹]	kcat [4] [s⁻¹]
FIXa-Y155F/K228N/R318Y/R338E/R403E/E410N (protein) chain 1: YNSGKLEEFVQGNLERECMEEKCSFEEAREVFENTERTTEFWKQYVDGDQCESNPCLNGGSCKDDINSYECWCPFGFEGKNCELDVTCNIKNGRCEQFCKNSADNKVVCSCTEGYRLAENQKSCEPAVPFPCGRVSVSQTSKLTR chain 2: VVGGEDAKPGQFPWQVVLNGKVDAFCGGSIVNEKWIVTAAHCVETGVNITVVAGEHNIEETEHTEQKRNVIRIIPHHNYNAAINKYNHDIALLELDEPLVLNSYVTPICIADKEYTNIFLKFGSGYVSGWGRVFHKGYSALVLQYLRVPLVDRATCLESTKFTIYNNMFCAGFHEGGRDSCQGDSGGPHVTEVEGTSFLTGIISWGEECAMKGKYGIYTKVSEYVNWIKNKTKLT	> 517	517	356	9.7	1.6e+08	453	0.048	2e+08	–	–	–
FIXa-D85N/K228N/R318Y/R338E/R403E/E410N (protein) chain 1: YNSGKLEEFVQGNLERECMEEKCSFEEAREVFENTERTTEFWKQYVDGDQCESNPCLNGGSCKDDINSYECWCPFGFEGKNCELNVTCNIKNGRCEQFCKNSADNKVVCSCTEGYRLAENQKSCEPAVPFPCGRVSVSQTSKLTR chain 2: VVGGEDAKPGQFPWQVVLNGKVDAFCGGSIVNEKWIVTAAHCVETGVNITVVAGEHNIEETEHTEQKRNVIRIIPHHNYNAAINKYNHDIALLELDEPLVLNSYVTPICIADKEYTNIFLKFGSGYVSGWGRVFHKGYSALVLQYLRVPLVDRATCLESTKFTIYNNMFCAGFHEGGRDSCQGDSGGPHVTEVEGTSFLTGIISWGEECAMKGKYGIYTKVSEYVNWIKNKTKLT	> 517	517	336	6	1.6e+08	346	0.0393	1.6e+08	–	–	–
FIXa-R318Y/R338E/R403E/E410N/T412V (protein) chain 1: YNSGKLEEFVQGNLERECMEEKCSFEEAREVFENTERTTEFWKQYVDGDQCESNPCLNGGSCKDDINSYECWCPFGFEGKNCELDVTCNIKNGRCEQFCKNSADNKVVCSCTEGYRLAENQKSCEPAVPFPCGRVSVSQTSKLTR chain 2: VVGGEDAKPGQFPWQVVLNGKVDAFCGGSIVNEKWIVTAAHCVETGVKITVVAGEHNIEETEHTEQKRNVIRIIPHHNYNAAINKYNHDIALLELDEPLVLNSYVTPICIADKEYTNIFLKFGSGYVSGWGRVFHKGYSALVLQYLRVPLVDRATCLESTKFTIYNNMFCAGFHEGGRDSCQGDSGGPHVTEVEGTSFLTGIISWGEECAMKGKYGIYTKVSEYVNWIKNKVKLT	> 517	517	–	–	–	424	–	1.9e+08	0.0443	7	7.9
FIXa-Y155F/I251S/R318Y/R338E/R403E/E410N (protein) chain 1: YNSGKLEEFVQGNLERECMEEKCSFEEAREVFENTERTTEFWKQYVDGDQCESNPCLNGGSCKDDINSYECWCPFGFEGKNCELDVTCNIKNGRCEQFCKNSADNKVVCSCTEGYRLAENQKSCEPAVPFPCGRVSVSQTSKLTR chain 2: VVGGEDAKPGQFPWQVVLNGKVDAFCGGSIVNEKWIVTAAHCVETGVKITVVAGEHNIEETEHTEQKRNVSRIIPHHNYNAAINKYNHDIALLELDEPLVLNSYVTPICIADKEYTNIFLKFGSGYVSGWGRVFHKGYSALVLQYLRVPLVDRATCLESTKFTIYNNMFCAGFHEGGRDSCQGDSGGPHVTEVEGTSFLTGIISWGEECAMKGKYGIYTKVSEYVNWIKNKTKLT	> 517	517	363	7.2	1.7e+08	374	0.0433	1.7e+08	–	–	–
FIXa-R318Y/R338E/R403E/E410N/T412A (protein) chain 1: YNSGKLEEFVQGNLERECMEEKCSFEEAREVFENTERTTEFWKQYVDGDQCESNPCLNGGSCKDDINSYECWCPFGFEGKNCELDVTCNIKNGRCEQFCKNSADNKVVCSCTEGYRLAENQKSCEPAVPFPCGRVSVSQTSKLTR chain 2: VVGGEDAKPGQFPWQVVLNGKVDAFCGGSIVNEKWIVTAAHCVETGVKITVVAGEHNIEETEHTEQKRNVIRIIPHHNYNAAINKYNHDIALLELDEPLVLNSYVTPICIADKEYTNIFLKFGSGYVSGWGRVFHKGYSALVLQYLRVPLVDRATCLESTKFTIYNNMFCAGFHEGGRDSCQGDSGGPHVTEVEGTSFLTGIISWGEECAMKGKYGIYTKVSEYVNWIKNKAKLT	> 517	517	–	–	–	577	–	2.6e+08	0.0335	7.8	8.4
FIXa-D104N/K106S/K247N/N249S/R318Y/R338E/R403E/E410N (protein) chain 1: YNSGKLEEFVQGNLERECMEEKCSFEEAREVFENTERTTEFWKQYVDGDQCESNPCLNGGSCKDDINSYECWCPFGFEGKNCELDVTCNIKNGRCEQFCKNSANNSVVCSCTEGYRLAENQKSCEPAVPFPCGRVSVSQTSKLTR chain 2: VVGGEDAKPGQFPWQVVLNGKVDAFCGGSIVNEKWIVTAAHCVETGVKITVVAGEHNIEETEHTEQNRSVIRIIPHHNYNAAINKYNHDIALLELDEPLVLNSYVTPICIADKEYTNIFLKFGSGYVSGWGRVFHKGYSALVLQYLRVPLVDRATCLESTKFTIYNNMFCAGFHEGGRDSCQGDSGGPHVTEVEGTSFLTGIISWGEECAMKGKYGIYTKVSEYVNWIKNKTKLT	> 517	517	192	5.2	8.8e+07	197	0.059	8.8e+07	–	–	–
FIXa-K228N/K247N/N249S/R318Y/R338E/R403E/E410N (protein) chain 1: YNSGKLEEFVQGNLERECMEEKCSFEEAREVFENTERTTEFWKQYVDGDQCESNPCLNGGSCKDDINSYECWCPFGFEGKNCELDVTCNIKNGRCEQFCKNSADNKVVCSCTEGYRLAENQKSCEPAVPFPCGRVSVSQTSKLTR chain 2: VVGGEDAKPGQFPWQVVLNGKVDAFCGGSIVNEKWIVTAAHCVETGVNITVVAGEHNIEETEHTEQNRSVIRIIPHHNYNAAINKYNHDIALLELDEPLVLNSYVTPICIADKEYTNIFLKFGSGYVSGWGRVFHKGYSALVLQYLRVPLVDRATCLESTKFTIYNNMFCAGFHEGGRDSCQGDSGGPHVTEVEGTSFLTGIISWGEECAMKGKYGIYTKVSEYVNWIKNKTKLT	> 517	517	–	–	–	258	–	1.2e+08	0.0558	7.1	6.1
FIXa-R318Y/R338E/R403E/E410S (protein) chain 1: YNSGKLEEFVQGNLERECMEEKCSFEEAREVFENTERTTEFWKQYVDGDQCESNPCLNGGSCKDDINSYECWCPFGFEGKNCELDVTCNIKNGRCEQFCKNSADNKVVCSCTEGYRLAENQKSCEPAVPFPCGRVSVSQTSKLTR chain 2: VVGGEDAKPGQFPWQVVLNGKVDAFCGGSIVNEKWIVTAAHCVETGVKITVVAGEHNIEETEHTEQKRNVIRIIPHHNYNAAINKYNHDIALLELDEPLVLNSYVTPICIADKEYTNIFLKFGSGYVSGWGRVFHKGYSALVLQYLRVPLVDRATCLESTKFTIYNNMFCAGFHEGGRDSCQGDSGGPHVTEVEGTSFLTGIISWGEECAMKGKYGIYTKVSEYVNWIKSKTKLT	> 517	517	458	5.8	2.1e+08	401	0.0351	1.8e+08	–	7.4	–
FIXa-I251S/R318Y/R338E/R403E/E410N (protein) chain 1: YNSGKLEEFVQGNLERECMEEKCSFEEAREVFENTERTTEFWKQYVDGDQCESNPCLNGGSCKDDINSYECWCPFGFEGKNCELDVTCNIKNGRCEQFCKNSADNKVVCSCTEGYRLAENQKSCEPAVPFPCGRVSVSQTSKLTR chain 2: VVGGEDAKPGQFPWQVVLNGKVDAFCGGSIVNEKWIVTAAHCVETGVKITVVAGEHNIEETEHTEQKRNVSRIIPHHNYNAAINKYNHDIALLELDEPLVLNSYVTPICIADKEYTNIFLKFGSGYVSGWGRVFHKGYSALVLQYLRVPLVDRATCLESTKFTIYNNMFCAGFHEGGRDSCQGDSGGPHVTEVEGTSFLTGIISWGEECAMKGKYGIYTKVSEYVNWIKNKTKLT	> 517	517	334	4.8	1.5e+08	344	0.0334	1.5e+08	–	–	–
FIXa-Y155F/K247N/N249S/R318Y/R338E/R403E/E410N (protein) chain 1: YNSGKLEEFVQGNLERECMEEKCSFEEAREVFENTERTTEFWKQYVDGDQCESNPCLNGGSCKDDINSYECWCPFGFEGKNCELDVTCNIKNGRCEQFCKNSADNKVVCSCTEGYRLAENQKSCEPAVPFPCGRVSVSQTSKLTR chain 2: VVGGEDAKPGQFPWQVVLNGKVDAFCGGSIVNEKWIVTAAHCVETGVKITVVAGEHNIEETEHTEQNRSVIRIIPHHNYNAAINKYNHDIALLELDEPLVLNSYVTPICIADKEYTNIFLKFGSGYVSGWGRVFHKGYSALVLQYLRVPLVDRATCLESTKFTIYNNMFCAGFHEGGRDSCQGDSGGPHVTEVEGTSFLTGIISWGEECAMKGKYGIYTKVSEYVNWIKNKTKLT	> 517	517	405	6.5	1.9e+08	408	0.0391	1.8e+08	–	–	–
FIXa-K228N/R318Y/R338E/R403E/E410N (protein) chain 1: YNSGKLEEFVQGNLERECMEEKCSFEEAREVFENTERTTEFWKQYVDGDQCESNPCLNGGSCKDDINSYECWCPFGFEGKNCELDVTCNIKNGRCEQFCKNSADNKVVCSCTEGYRLAENQKSCEPAVPFPCGRVSVSQTSKLTR chain 2: VVGGEDAKPGQFPWQVVLNGKVDAFCGGSIVNEKWIVTAAHCVETGVNITVVAGEHNIEETEHTEQKRNVIRIIPHHNYNAAINKYNHDIALLELDEPLVLNSYVTPICIADKEYTNIFLKFGSGYVSGWGRVFHKGYSALVLQYLRVPLVDRATCLESTKFTIYNNMFCAGFHEGGRDSCQGDSGGPHVTEVEGTSFLTGIISWGEECAMKGKYGIYTKVSEYVNWIKNKTKLT	> 517	517	–	–	–	349	0.0361	1.6e+08	–	–	–
